Test results: patent publication US20180030151A1 (MOGAM INSTITUTE FOR BIOMEDICAL RESEARCH, published 2018)
Where two headings read alike, the source gives them in different places.

Key:
[1] = biological target: T1, recombinant human TFPI (tissue factor pathway inhibitor) (human, UniProt P10646 29-304); assay: cell-based or functional assay
[2] = biological target: T1, recombinant human TFPI (tissue factor …); assay: SPR, Biacore T-200; IgG captured on protein A (CM5), TFPI as analyte
Procedure: Dissociation of the TFPI associated with the antibody was induced by running 10 mM glycine-HCl (pH 1.5) at a flow rate for 30 seconds. The affinities in terms of kinetic rate constants (Kₒₙ and Koff) and equilibrium dissociation constant (KD) were evaluated using Biacore T-200 evaluation software, and the results are shown in Table 24 below.

[3] = biological target: TFPI in FVIII-deficient plasma (sample dilution); assay: cell-based or functional assay
[4] = biological target: T1, recombinant human TFPI (tissue factor …); assay: cell-based or functional assay; remark: listed apart in the source
[5] = biological target: T1, recombinant human TFPI (tissue factor …); assay: cell-based or functional assay; remark: listed apart in the source
[6] = biological target: T1, recombinant human TFPI (tissue factor …); assay: cell-based or functional assay; remark: listed apart in the source
[7] = biological target: T1, recombinant human TFPI (tissue factor …); assay: cell-based or functional assay; remark: listed apart in the source
[8] = biological target: T1, recombinant human TFPI (tissue factor …); assay: cell-based or functional assay; remark: listed apart in the source
[9] = biological target: T1, recombinant human TFPI (tissue factor …); assay: cell-based or functional assay; remark: listed apart in the source
[10] = biological target: T1, recombinant human TFPI (tissue factor …); assay: cell-based or functional assay; remark: listed apart in the source
[11] = biological target: T1, recombinant human TFPI (tissue factor …); assay: cell-based or functional assay; remark: listed apart in the source
[12] = biological target: T1, recombinant human TFPI (tissue factor …); assay: cell-based or functional assay; remark: listed apart in the source

B1: clone 1023 (antibody, V domains shown)
VH: EVQLVESGGGLVKPGGSLRLSCAASGFTFSSYAMNWVRQAPGKGLEWVGTITTGGSYTYYADSVDGRFTISRDNAKNSLYLQMNSLRAEDTAVYYCARQDGNFLMDYWGQGTLVTVSS
VL: DVVMTQTPLSLPVTLGQPASISCKSSQSLLDIDGKTYLNWLQQRPGQSPKRLIYLVSKLDSGVPDRFTGSGSGTDFTLKISRVEAEDVGVYYCWQGTHFPFTFGQGTKVEIKR
notes: scFv on yeast at selection; human IgG4/kappa IgG as purified
With B1 the “% of Normalized, TF/FVIIa/FX complex assay, Ab 1.56 nM” value [1] was 16%, the “% of Normalized, TF/FVIIa/FX complex assay, Ab 3.13 nM” value [1] was 17.5% and the “% of Normalized, TF/FVIIa/FX complex assay, Ab 6.25 nM” value [1] was 19.9%. The “% of Normalized, TF/FVIIa/FX complex assay, Ab 12.5 nM” value [1] was 27.1%, the “% of Normalized, TF/FVIIa/FX complex assay, Ab 25 nM” value [1] was 96.6% and the “% of Normalized, TF/FVIIa/FX complex assay, Ab 50 nM” value [1] was 94.8%. The “% of Normalized, TF/FVIIa/FX complex assay, Ab 100 nM” value [1] was 98%, the Kd [2] was 0.0301 nM and the “ETP vs negative control, thrombin generation assay, Ab 2.5 nM” value [3] was roughly 309%. The “thrombin peak vs blank, thrombin generation assay, Ab 2.5 nM” value [3] was roughly 401%, the “effect of inhibiting TFPI, FXa activity assay, Ab 10 nM” value [4] was roughly 84% and the “effect of inhibiting TFPI, FXa activity assay, Ab 20 nM” value [4] was roughly 86%. For the same binder, the “FXa assay % of FXa alone, 2.5 nM Ab, 10 nM TFPI” value [5] was 8.4%, the “FXa assay % of FXa alone, 5 nM Ab, 10 nM TFPI” value [5] was 40.8% and the “FXa assay OD, 2.5 nM Ab, 10 nM TFPI” value [5] was 0.0605. For the same binder, the “FXa assay OD, 5 nM Ab, 10 nM TFPI” value [5] was 0.293, the “FXa assay OD, 10 nM Ab, 10 nM TFPI” value [5] was 0.605 and the “FXa assay % of FXa alone, 2.5 nM Ab, 10 nM TFPI” value [6] was 8.9%. For the same binder, the “FXa assay % of FXa alone, 5 nM Ab, 10 nM TFPI” value [6] was 63.1%, the “FXa assay % of FXa alone, 10 nM Ab, 10 nM TFPI” value [6] was 85.3% and the “FXa assay % of FXa alone, 20 nM Ab, 10 nM TFPI” value [6] was 88.5%. The “FXa assay OD, 2.5 nM Ab, 10 nM TFPI” value [6] was 0.0715, the “FXa assay OD, 5 nM Ab, 10 nM TFPI” value [6] was 0.509 and the “FXa assay OD, 10 nM Ab, 10 nM TFPI” value [6] was 0.688. For the same binder, the “FXa assay OD, 20 nM Ab, 10 nM TFPI” value [6] was 0.714, the “FXa assay % of FXa alone, 2.5 nM Ab, 10 nM TFPI” value [7] was 6.7% and the “FXa assay % of FXa alone, 5 nM Ab, 10 nM TFPI” value [7] was 26.6%. The “FXa assay % of FXa alone, 10 nM Ab, 10 nM TFPI” value [7] was 82.3%, the “FXa assay % of FXa alone, 20 nM Ab, 10 nM TFPI” value [7] was 84% and the “FXa assay OD, 2.5 nM Ab, 10 nM TFPI” value [7] was 0.051. The “FXa assay OD, 5 nM Ab, 10 nM TFPI” value [7] was 0.203, the “FXa assay OD, 10 nM Ab, 10 nM TFPI” value [7] was 0.626 and the “FXa assay OD, 20 nM Ab, 10 nM TFPI” value [7] was 0.639. For the same binder, the “A405, TF/FVIIa/FX complex assay (FX 5 nM), Ab 1.56 nM” value [8] was 0.05, the “A405, TF/FVIIa/FX complex assay (FX 5 nM), Ab 3.13 nM” value [8] was 0.048 and the “A405, TF/FVIIa/FX complex assay (FX 5 nM), Ab 6.25 nM” value [8] was 0.056. The “A405, TF/FVIIa/FX complex assay (FX 5 nM), Ab 12.5 nM” value [8] was 0.079, the “A405, TF/FVIIa/FX complex assay (FX 5 nM), Ab 25 nM” value [8] was 0.216 and the “A405, TF/FVIIa/FX complex assay (FX 5 nM), Ab 50 nM” value [8] was 0.652. For the same binder, the “A405, TF/FVIIa/FX complex assay (FX 5 nM), Ab 100 nM” value [8] was 0.81, the “% of Normalized, TF/FVIIa/FX complex assay (FX 5 nM), Ab 1.56 nM” value [9] was 6.2% and the “% of Normalized, TF/FVIIa/FX complex assay (FX 5 nM), Ab 3.13 nM” value [9] was 5.9%. The “% of Normalized, TF/FVIIa/FX complex assay (FX 5 nM), Ab 6.25 nM” value [9] was 6.9%, the “% of Normalized, TF/FVIIa/FX complex assay (FX 5 nM), Ab 12.5 nM” value [9] was 9.7% and the “% of Normalized, TF/FVIIa/FX complex assay (FX 5 nM), Ab 25 nM” value [9] was 26.6%. For the same binder, the “% of Normalized, TF/FVIIa/FX complex assay (FX 5 nM), Ab 50 nM” value [9] was 80.5%, the “% of Normalized, TF/FVIIa/FX complex assay (FX 5 nM), Ab 100 nM” value [9] was 100% and the “A405, TF/FVIIa/FX complex assay, Ab 1.56 nM” value [10] was 0.153. The “A405, TF/FVIIa/FX complex assay, Ab 3.13 nM” value [10] was 0.167, the “A405, TF/FVIIa/FX complex assay, Ab 6.25 nM” value [10] was 0.19 and the “A405, TF/FVIIa/FX complex assay, Ab 12.5 nM” value [10] was 0.259. For the same binder, the “A405, TF/FVIIa/FX complex assay, Ab 25 nM” value [10] was 0.923, the “A405, TF/FVIIa/FX complex assay, Ab 50 nM” value [10] was 0.905 and the “A405, TF/FVIIa/FX complex assay, Ab 100 nM” value [10] was 0.935. The “FXa assay % of FXa alone, 2.5 nM Ab, 10 nM TFPI” value [11] was 8.1%, the “FXa assay % of FXa alone, 5 nM Ab, 10 nM TFPI” value [11] was 16.2% and the “FXa assay % of FXa alone, 10 nM Ab, 10 nM TFPI” value [11] was 80.9%. For the same binder, the “FXa assay % of FXa alone, 20 nM Ab, 10 nM TFPI” value [11] was 92.8%, the “FXa assay OD, 2.5 nM Ab, 10 nM TFPI” value [11] was 0.096 and the “FXa assay OD, 5 nM Ab, 10 nM TFPI” value [11] was 0.193. The “FXa assay OD, 10 nM Ab, 10 nM TFPI” value [11] was 0.963, the “FXa assay OD, 20 nM Ab, 10 nM TFPI” value [11] was 1.1 and the “FXa assay % of FXa alone, 2.5 nM Ab, 10 nM TFPI” value [12] was 5.2%. For the same binder, the “FXa assay % of FXa alone, 5 nM Ab, 10 nM TFPI” value [12] was 8%, the “FXa assay % of FXa alone, 10 nM Ab, 10 nM TFPI” value [12] was 52.7% and the “FXa assay % of FXa alone, 20 nM Ab, 10 nM TFPI” value [12] was 78.4%. The “FXa assay OD, 2.5 nM Ab, 10 nM TFPI” value [12] was 0.045 and the “FXa assay OD, 5 nM Ab, 10 nM TFPI” value [12] was 0.0695.
